# T1: AlkG (rubredoxin-2) (Pseudomonas putida, UniProt Q9WWW4)
# T1 chain: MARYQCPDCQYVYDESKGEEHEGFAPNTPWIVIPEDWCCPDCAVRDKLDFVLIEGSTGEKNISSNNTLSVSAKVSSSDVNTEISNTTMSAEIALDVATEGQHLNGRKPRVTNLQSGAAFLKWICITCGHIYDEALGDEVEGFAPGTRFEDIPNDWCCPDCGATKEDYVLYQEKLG
# B1: AlkB (protein)
# chain: MNGKSSVLDSAPEYVDKKKYFWILSTFWPATPMIGIWLANETGWGIFYGLVLAVWYGVLPLLDAMFGEDFNNPPEEVVEKLEKERYYRVLTYLTVPMHYAALIVSAWWVGTQSMSWFEIVALALSLGIVNGLALNTGHELGHKKEAFDRWMAKIVLAVVGYGHFFIEHNKGHHRDVATPMDPATSRMGENIYKFSTREIPGAFRRAWGLEEQRLSRRGQSVWSFDNEILQPMVITVVLYTLLLAFFGPKMLVFLPIQMAFGWWQLTSANYIEHYGLLREKMADGRYEHQKPHHSWNSNHIVSNLVLFHLQRHSDHHAHPTRSYQSLRDFPGLPALPTGYPGAFLMAMIPQWFRSVMDPKVVNWANGDLSKIQIEDSMRAEYIKKFTHNVGADDKRGATAVAS
# Biological target: T1, AlkG (rubredoxin-2)
# Test: electrochemical activity titration on AlkG-immobilized screen-printed carbon electrode (one-site and two-site binding model fits)
binder,measurement,value
B1,Kd,268 µM

# Reference: article PMC5566439 (2017)
